{"source": "paper doi:10.1101/2022.05.21.492554", "target": "ACE2-Fc (UniProt Q9BYF1)", "sequence (Q9BYF1 18-740)": "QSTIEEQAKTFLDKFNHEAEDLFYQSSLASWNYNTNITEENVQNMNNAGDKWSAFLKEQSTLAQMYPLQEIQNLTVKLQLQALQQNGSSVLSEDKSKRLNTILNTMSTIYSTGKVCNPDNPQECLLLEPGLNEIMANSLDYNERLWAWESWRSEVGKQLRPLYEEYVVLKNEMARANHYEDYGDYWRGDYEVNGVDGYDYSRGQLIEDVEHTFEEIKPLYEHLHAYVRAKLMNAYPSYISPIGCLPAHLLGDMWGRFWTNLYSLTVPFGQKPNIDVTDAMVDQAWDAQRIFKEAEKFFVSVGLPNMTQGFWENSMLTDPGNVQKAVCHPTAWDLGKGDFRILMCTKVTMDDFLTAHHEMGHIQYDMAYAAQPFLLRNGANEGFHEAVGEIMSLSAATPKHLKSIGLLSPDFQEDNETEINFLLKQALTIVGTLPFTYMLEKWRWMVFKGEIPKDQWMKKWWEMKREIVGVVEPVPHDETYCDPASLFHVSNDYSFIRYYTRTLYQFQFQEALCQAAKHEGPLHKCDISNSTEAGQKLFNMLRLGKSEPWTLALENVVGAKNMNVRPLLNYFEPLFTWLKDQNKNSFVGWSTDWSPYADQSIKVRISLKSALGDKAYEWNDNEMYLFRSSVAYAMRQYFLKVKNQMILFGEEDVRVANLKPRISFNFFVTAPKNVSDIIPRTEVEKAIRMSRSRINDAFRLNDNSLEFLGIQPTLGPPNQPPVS", "assay": "SPR"}
{"substance": "Wuhan RBD", "values": [{"measurement": "Kd", "value": 7.3, "unit": "nM"}, {"measurement": "koff", "value": 0.0051, "unit": "s⁻¹"}]}
